# Structures can show the parent of a compound that is named as a salt. Square brackets hold non-standard residues; d marks the D form. Peptide text beside a SMILES is read from it. * marks the point of attachment. Sta = CC(C)C[C@H](N)[C@@H](O)CC(=O)O; Isovaleryl = CC(C)CC(=O)*
# How the values were obtained:
# [1] = system: endogenously expressed APP isoforms in SH-SY5Y cells; experiment: Western blot of C99 fragment generation in transfected SH-SY5Y cells; type: cell-based, human; conditions: BACE455 SH-SY5Y cells
# Experimental: SH-SY5Y cells for transfection were grown to 80% confluence in Dulbecco's modified Eagle's medium (DMEM) with 10% fetal bovine serum. Transfections were performed using LipofectAmine Plus (Gibco-BRL) with […] per 10*10<6>cells. Three days posttransfection, cells were passaged into medium containing G418 at a concentration of 400 μg/ml. After twenty days growth in selective medium, individual clones were selected and plated into each well of one 96 well plate containing growth medium plus G418. Clones were expanded from the 96 well plate to a 24 well plate and then to a 6 well plate. Clones which had lost initial neuronal-like morphology were not amplified. BACE455 or BACE501 expression in selected clones was assayed by Western Blotting and immunohistochemical analysis using Cterminal-specific antibody.
# Cells were harvested 3 days after plating. Cells were washed twice with PBS and lysed in 1 ml CellLytic solution (Sigma) plus protease inhibitors cocktail (Roche Diagnostics) for 15 min. […] Following electrotransfer of the separated polypeptides to PVDF membranes, APP and C99 proteolytic fragment were detected with C-terminal-specific rabbit anti-APP antibody (Serotec, UK) at 1/500 in PBS-Tween 20 0.1%, and the antibody-antigen complexes were visualized using alkaline phosphatase conjugated goat anti-rabbit antibodies (1/5000). […]
# [2] = target: T1, BACE455 (Homo sapiens, UniProt P56817, DEL190-235); experiment: beta-secretase fluorogenic assay (Substrate V) with membrane extracts of HEK293-BACE455 cells plus protease inhibitors; type: biochemical; conditions: for inhibition at 100 µM / Percentage of BACE455 inhibition by various inhibitors (mean percentage of cleavage inhibition): BACE455 cell extract; for inhibition at 100 µM / Percentage of BACE455 inhibition by various inhibitors (mean percentage of cleavage inhibition) / effect on substrate cleavage activity of BACE455 extracts (in words): inhibitor 100 μM; for inhibition at 100 µM: read-out: Percentage of BACE455 inhibition by various inhibitors (mean percentage of cleavage inhibition); for BACE455 activity (percentage of activity +−SEM): compared to mock transfected control; for % Inhibition of BACE activity by Inhibitor III: BACE455, 100 μM
# T1 construct: full length cDNA of BACE501 and BACE455 in TOPO TA vector were subcloned into pcDNA3; expressed in transfected cells; Triton X100 membrane extract
# Experimental: (§1) Cells were harvested and centrifuged at 1,500 rpm for 5 minutes to remove the medium. The cell pellets were washed once with PBS. To further compare BACE455 activity with that of BACE501, an in vitro assay was developed based on quenched fluorogenic substrate (Substrate V, Calbiochem) containing the Swedish mutation KM->NL in APP. Sequence of the peptide was: MCA-[…](DNP)-CONH2 (SEQ ID NO: 32), containing the Swedish APP mutation (in boldface), γ-amino-4-methyl coumarin (MCA) as the fluorophore and dinotrophenol (DNP) as the quencher. When cell lysates of BACE455 and BACE501 expressing cells are incubated with the fluorogenic Substrate V, upon cleavage by the protease, the fluorophore is separated from the quenching group, restoring the full fluorescence yield of the donor. (Ermolief et al., Biochemistry 39: 12450-12456 (2000); Ellerby et al. J. Neurosci. 17: 6165-6178 (1997); Capel et al., J Biol. Chem. 277: 5637-43 (2002)).
# (§2) Mock transfected HEK293 and HEK293-BACE455 and -BACE501cells were harvested by scraping in ice-cold 20 mM Tris/150 mM NaCl, pH 7.5 plus Complete Protease Inhibitor Cocktail (Roche Diagnostics). Cell were lysed by repeated freeze-thawing and a postnuclear fraction was generated after centrifugation at 500 g for 10 min, Pellets were resuspended in membrane extraction buffer (20 mM MES/1% Triton X100) containing protease inhibitor cocktail and incubated on ice for 30 minutes. The assay was carried out in black 96 well plates (ATGC) in a volume of 200 μl of the membrane preparation diluted in reaction buffer (25 mM MES/25 mM Sodium Acetate/25 mM Tris, pH 4.4) containing 15 μM peptide Substrate V. These components were equilibrated to 37[deg.] C. for various times and the reaction initiated by addition of substrate. Excitation was performed at 320 nm and the reaction kinetics were monitored by measuring the fluorescence emission at 420 nm. To test the effect of pH, lysed cells were resuspended in 25 mM MES/25 mM Sodium Acetate/25 mM Tris adjusted at pH values ranging from 4.4 to 8 and then incubations were performed as above. Controls included purified recombinant human BACE501 protein (R&D Systems), or substrate alone and background fluorescence is subtracted to recorded BACE isoforms activities.
# (§3) Protease inhibitors were added to 100 μl reaction buffer (25 mM MES/25 mM Sodium Acetate/25 mM Tris, pH 4.4) at a final concentration of 100 μM. […] Membrane preparations were obtained as in Example 4 and incubated with the inhibitors for 10 min at room temperature. Reaction was then started by adding 100 μl of reaction buffer containing the substrate (15 μM final concentration) and monitored as described in Example 4. For the dose-response experiment of FIG. 3, Inhibitor III was assayed at various concentrations ranging from 100 μM to 100 nM
# (§4) Membrane preparations were obtained as in Example 4 and incubated in assay buffer (25 mM MES/25 mM Sodium Acetate/25 mM Tris) adjusted to final pH ranging from 4.4 to 8, in the presence or absence of BACE inhibitor III (100 μM final concentration). Reaction was started by adding 100 μl of reaction buffer (pH ranging from 4.4 to 8) containing the substrate (15 μM final concentration) and monitored as described in Example 4. We determined in these conditions the percentage of inhibition of BACE by Inhibitor III.
# [3] = target: T2, BACE501 (Homo sapiens, UniProt P56817); experiment: beta-secretase fluorogenic assay (Substrate V) with membrane extracts of HEK293-BACE501 cells plus protease inhibitors; type: biochemical; conditions: for inhibition at 100 µM / Percentage of inhibition by various inhibitors (mean percentage of cleavage inhibition), BACE501: BACE501 cell extract; for inhibition at 100 µM / Percentage of inhibition by various inhibitors (mean percentage of cleavage inhibition), BACE501 / effect on substrate cleavage activity of BACE501 extracts (in words): inhibitor 100 μM; for inhibition at 100 µM: read-out: Percentage of inhibition by various inhibitors (mean percentage of cleavage inhibition), BACE501; for BACE501 activity (percentage of activity +−SEM): compared to mock transfected control; for % Inhibition of BACE activity by Inhibitor III: BACE501, 100 μM
# T2 construct: full length cDNA of BACE501 and BACE455 in TOPO TA vector were subcloned into pcDNA3; expressed in transfected cells; Triton X100 membrane extract
# Experimental: as §1, §2, §3, §4
# [4] = system: endogenously expressed APP in SH-SY5Y cells; experiment: Aβ1-40 double antibody sandwich ELISA on conditioned medium of transfected SH-SY5Y cells; type: cell-based, human; conditions: Gleevec treatment of BACE455 cells
# Experimental: Cells were harvested 3 days after plating and processed for Western Blotting experiments as described above.
# Cell culture supernatants harvested 72 hours after plating were analyzed in a standard double antibody isoform-specific Aβ1-40 ELISA (BioSource International) as follows. […] The detecting antibody is specific for Abeta 1-40 and the conjugated secondary antibody is an anti-rabbit IgG conjugated to horseradish peroxydase. Synthetic human Aβ1-40 standard peptides are serially diluted in the supplied sample diluent for the generation of standard curves.
# Human Abeta 1-40 standards were added after washing the plate, as well as 100 μl/well of sample, e.g., conditioned medium of transfected cells. The plate was incubated at 4[deg.] C. overnight. The next day, after washing the plate four times, 100 μl/well rabbit detection antibody was added and incubated for 2 hours on an orbital plate shaker at 20 degree C. […] 100 μl/well stop solution was added and absorbance of each well was read at 450 nm within two hours, with a solution of 100 μl each of chromogen and stop solution as the blank. […] The samples with absorbance values falling within the standard curve were extrapolated (by comparison to the values obtained for the A-β40 and A-β42 standard peptides analyzed on the same plate) from the standard curves and expressed in pg/ml culture medium.
# T2 sequence (P56817 46-501): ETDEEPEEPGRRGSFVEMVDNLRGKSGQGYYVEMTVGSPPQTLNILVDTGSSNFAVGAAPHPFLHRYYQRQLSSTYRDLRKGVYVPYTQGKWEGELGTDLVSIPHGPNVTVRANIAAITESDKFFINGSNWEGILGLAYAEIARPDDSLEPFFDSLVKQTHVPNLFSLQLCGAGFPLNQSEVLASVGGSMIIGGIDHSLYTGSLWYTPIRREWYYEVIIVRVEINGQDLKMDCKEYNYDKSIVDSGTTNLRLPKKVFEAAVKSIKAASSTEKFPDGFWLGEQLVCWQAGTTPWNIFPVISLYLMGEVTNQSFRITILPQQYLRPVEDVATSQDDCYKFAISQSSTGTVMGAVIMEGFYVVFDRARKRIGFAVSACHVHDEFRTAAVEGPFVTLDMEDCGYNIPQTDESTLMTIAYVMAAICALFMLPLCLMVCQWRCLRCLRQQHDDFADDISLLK
# T1 sequence (P56817 with tags, fused parts or gaps DEL190-235): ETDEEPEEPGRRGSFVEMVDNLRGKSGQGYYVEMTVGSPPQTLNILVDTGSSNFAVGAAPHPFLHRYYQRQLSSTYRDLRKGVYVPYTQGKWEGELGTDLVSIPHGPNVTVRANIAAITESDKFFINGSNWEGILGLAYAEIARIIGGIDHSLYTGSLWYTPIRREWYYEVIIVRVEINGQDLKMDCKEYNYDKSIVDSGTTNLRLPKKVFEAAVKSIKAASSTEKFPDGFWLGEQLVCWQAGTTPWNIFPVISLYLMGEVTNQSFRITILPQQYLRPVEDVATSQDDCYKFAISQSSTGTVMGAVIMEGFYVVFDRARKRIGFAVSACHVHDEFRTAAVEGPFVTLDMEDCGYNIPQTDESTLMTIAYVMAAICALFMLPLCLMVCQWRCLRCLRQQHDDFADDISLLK
compound,measurement,setting,value
"C[C@H]1CCC/C=C/[C@@H]2C[C@H](O)C[C@H]2[C@H](O)/C=C/C(=O)O1 [BFA, brefeldin A]",generation of C99,[1]; 10 μg/ml during the last 8 hours,reduced generation of C99
CC(C)C[C@H](NC(=O)[C@@H](NC(=O)N[C@@H](Cc1ccccc1)C(=O)O)[C@@H]1CCN=C(N)N1)C(=O)N[C@H](C=O)Cc1ccccc1 [Chymostatin],inhibition at 100 µM,[2]; pH 4.4,25.9%
same,inhibition at 100 µM,[3]; pH 4.4,20.4%
"CC(C)CCNC(=O)[C@H](CC(C)C)NC(=O)[C@H]1O[C@@H]1C(=O)O [E-64c, E64c]",Percentage of BACE455 inhibition by various inhibitors (mean percentage of cleavage inhibition),[2]; pH 4.4,12.23%
same,"Percentage of inhibition by various inhibitors (mean percentage of cleavage inhibition), BACE501",[3]; pH 4.4,13.14%
"Cc1ccc(NC(=O)c2ccc(CN3CCN(C)CC3)cc2)cc1Nc1nccc(-c2cccnc2)n1 [Gleevec, imatinib mesylate]",Aβ1-40 release (in words),[4],strongly reduced
same,generation of C99 peptide,[1]; 10 μM for the last 24 hours,strongly reduced
CC(=O)N[C@@H](CC(C)C)C(=O)N[C@@H](CC(C)C)C(=O)N[C@H](C=O)CCCNC(=N)N [Leupeptin],inhibition at 100 µM,[2]; pH 4.4,17.3%
same,inhibition at 100 µM,[3]; pH 4.4,8.03%
CC(C)CC(=O)N[C@H](C(=O)N[C@H](C(=O)N[C@@H](CC(C)C)[C@@H](O)CC(=O)N[C@@H](C)C(=O)N[C@@H](CC(C)C)[C@@H](O)CC(=O)O)C(C)C)C(C)C [Pepstatin A] (Isovaleryl-VV[Sta]A[Sta]-OH),inhibition at 100 µM,[2]; pH 4.4,14.4%
same,effect on substrate cleavage activity of BACE455 extracts (in words),[2],very weakly sensitive
same,inhibition at 100 µM,[3]; pH 4.4,13.1%
same,effect on substrate cleavage activity of BACE501 extracts (in words),[3],very weakly sensitive
H-Glu-Val-Asn-Statine-Val-Ala-Glu-Phe-NH2 [Inhibitor III],BACE455 activity (percentage of activity +−SEM),[2]; 1 μM inhibitor,57.52+−9.08%
same,BACE455 activity (percentage of activity +−SEM),[2]; 10 μM inhibitor,36.04+−4.13%
same,% Inhibition of BACE activity by Inhibitor III,[2]; pH 4.4,104.16%
same,% Inhibition of BACE activity by Inhibitor III,[2]; pH 6.0,15.97%
same,% Inhibition of BACE activity by Inhibitor III,[2]; pH 8.0,22.10%
same,Percentage of BACE455 inhibition by various inhibitors (mean percentage of cleavage inhibition),[2]; pH 4.4,104.16%
same,effect on substrate cleavage activity of BACE455 extracts (in words),[2],completely abolished
same,BACE501 activity (percentage of activity +−SEM),[3]; 1 μM inhibitor,85.15+−2.93%
same,BACE501 activity (percentage of activity +−SEM),[3]; 10 μM inhibitor,57.6+−3.12%
same,% Inhibition of BACE activity by Inhibitor III,[3]; pH 4.4,117.54%
same,% Inhibition of BACE activity by Inhibitor III,[3]; pH 6.0,13.23%
same,% Inhibition of BACE activity by Inhibitor III,[3]; pH 8.0,17.63%
same,"Percentage of inhibition by various inhibitors (mean percentage of cleavage inhibition), BACE501",[3]; pH 4.4,117.54%
same,effect on substrate cleavage activity of BACE501 extracts (in words),[3],completely abolished

# From patent US20100317830A1, “BACE455, AN ALTERNATIVE SPLICE VARIANT OF THE HUMAN BETA-SECRETASE” (EXONHIT THERAPEUTICS SA, priority 2003, published 2010)
